Measured values published in patent US20240317847A1 (Bayer, published 2024).
Residue numbers refer to the chain shown, from its start. Where two headings read alike, the source gives them in different places. Blank lines part the entries; values can stand above or below the binder they belong to.

Columns and labels:
human IL-11 [1] = target: T1, human IL-11 (human, UniProt P20809 22-199); test: Tri-complex ELISA, hIL-11 + mIL-11Ra-Fc + hgp130-Fc, inhibition of complex formation
T1 construct: Invigate recombinant protein; biotinylated when immobilized in the Di-complex ELISA; also called hIL11; hIL-11
T1 sequence: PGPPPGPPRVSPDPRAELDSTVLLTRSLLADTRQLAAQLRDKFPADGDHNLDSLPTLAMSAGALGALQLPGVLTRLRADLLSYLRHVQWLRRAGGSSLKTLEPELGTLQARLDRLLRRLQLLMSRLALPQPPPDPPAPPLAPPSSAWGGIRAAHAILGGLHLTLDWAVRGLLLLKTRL
Method: In the Tri-complex ELISA format IL-11 antibodies are tested for their ability to inhibit the formation of a complex consisting of murine or human gp130-Fc fusion protein, with murine or human IL-11, and a murine IL11RA-Fc fusion protein. The assay format was adapted according to FIG. 18 (a, b), depending on whether murine or human IL-11 IgG antibodies were tested.
(§1) IgG converted antibodies were subjected to the experimental assay procedure described in Example 19 and IC50 [M], respectively efficacy (%) were calculated accordingly.

murine IL-11 [2] = target: T2, murine IL-11 (mouse, UniProt P47873 22-199); test: Tri-complex ELISA, mIL-11 + mIL-11Ra-Fc + mgp130-Fc, inhibition of complex formation
T2 construct: Invigate recombinant protein; biotinylated when immobilized in the Di-complex ELISA; also called mIL11; mIL-11
T2 sequence: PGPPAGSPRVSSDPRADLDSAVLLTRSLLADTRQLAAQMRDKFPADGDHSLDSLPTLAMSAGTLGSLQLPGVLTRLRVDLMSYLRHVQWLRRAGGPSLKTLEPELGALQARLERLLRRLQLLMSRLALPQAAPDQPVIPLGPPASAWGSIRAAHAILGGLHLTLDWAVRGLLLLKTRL
Method: In a first step, 25 μl of goat anti human IgG (Sigma, #12136), diluted 1:1000 in coating buffer (Candor, #121125) was coated on the plate at 4° C. overnight. Next day, the plate was washed one time with 50 μl PBST and then blocked with 50 μl SmartBlock (Candor, #113125) for one hour at room temperature (RT). […] After three additional washes of the coated and blocked microtiter plate with PBS-T, 25 μl of each mixture were added and the assay plate was incubated for one hour at room temperature. After three additional washes, anti-mouse-gp130 biotinylated antibody (R&D, #BAF468) or anti-human gp130 biotinylated antibody (R&D, #BAF228), both 1:1000 in 10% SmartBlock PBS-T, was added and incubated for 1 hour at RT. After three additional washes, a Streptavidin-Peroxidase conjugate (Sigma, #S5512) 1:1000 in SmartBlock PBS-T was added and incubated for one hour at room temperature. After a final three washes, AmplexRed (Fisher Scientific, A12222), 1/1000 in PBS, 0,003% H₂O₂, was added as substrate and incubated for 15 min at RT in the dark. Then, the fluorescence was measured with a plate reader at 535/595 nm. Signals from dose responses were used to calculate IC50 values using GraphPad Prism software. Efficacy was calculated as [(signal measured at lowest antibody concentration−signal measured at the highest antibody concentration)×100] divided by (signal measured at lowest antibody concentration−signal measured in the absence of antibody at an IL11 concentration of 8.2E-11 [M]).
as §1

human IL2Ra = target: T3, human IL2Ra (human, UniProt P01589 22-240, limits assumed); test: ELISA on coated IL2Ra, signal ratio to isotype control TPP-10159 at 3.3E-7 M antibody
T3 construct: coated on the ELISA plate; also called IL-2 receptor alpha
T3 sequence (looked up): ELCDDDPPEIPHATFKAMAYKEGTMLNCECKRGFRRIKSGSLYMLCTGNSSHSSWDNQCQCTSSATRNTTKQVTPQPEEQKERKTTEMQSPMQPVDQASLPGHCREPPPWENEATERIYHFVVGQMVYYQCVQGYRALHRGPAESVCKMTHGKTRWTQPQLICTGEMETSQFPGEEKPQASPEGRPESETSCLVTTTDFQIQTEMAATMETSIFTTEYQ
Method: IL2RA (Peprotech, Germany, #200-02RC) was coated at 1 or 0 μg/ml (buffer only control) in 30 μl coating buffer (Candor, #113500) per well on a 384 well microtiter plate (Maxisorb, Nunc, #460518) over night at 4-8° C. After two washes with 50 μl/well washing buffer (PBS+0.05% Tween, pH 7.4), the plates were incubated for two hours at room temperature with 50 μl/well SmartBlock (Candor, #113500). After blocking, the plates were washed three times with washing buffer. Then, a dilution series of the respective antibody (1E-7 [M] down to 2E-13 [M]) in PBS+0.05% Tween, 10% SmartBlock were added in 30 μl to the microtiter plate and incubated for 90 min at room temperature. After three additional washes, 30 μl anti mouse IgG HRP-conjugated antibody (Biotechne, HAF007), diluted 1:1000 in PBS+0.05% Tween (pH 7.4), were added per well and incubated for one hour. After three additional washes, a mixture of Amplex red (Invitrogen, #12222, 10 mM stock solution in DMSO) 1:1000 diluted in PBS and H2O2 (30%, Merck, #107209)) diluted 1:10000 in PBS were added as substrate with 30 μl per well and incubated for 20 min in the dark. Relative fluorescence was measured with a microtiter plate reader at 535/590 nm.
IgG converted antibodies TPP-were tested for binding to IL2Ra as described in Example 20. The ratios of the signals obtained at an antibody concentration of 3.3E-7 [M] for IgG converted antibody versus the isotype control TPP-10159 were calculated and are shown in Table E22.

human IL-11 [3] = target: T1, human IL-11; test: cell-based or functional assay
murine IL-11 [4] = target: T2, murine IL-11; test: cell-based or functional assay
human IL-11 [5] = target: T1, human IL-11; test: cell-based or functional assay; remark: listed apart in the source
murine IL-11 [6] = target: T2, murine IL-11; test: cell-based or functional assay; remark: listed apart in the source
cynomolgus IL-11 = target: T4, cynomolgus IL-11 (cynomolgus, UniProt P20808 22-199); test: cell-based or functional assay
T4 sequence: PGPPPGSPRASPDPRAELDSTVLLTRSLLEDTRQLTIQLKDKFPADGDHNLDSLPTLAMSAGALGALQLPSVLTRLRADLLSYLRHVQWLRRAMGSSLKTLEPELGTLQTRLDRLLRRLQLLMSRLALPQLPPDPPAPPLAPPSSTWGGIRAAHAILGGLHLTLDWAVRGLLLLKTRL

rat IL-11 = target: T5, rat IL-11 (rat, UniProt Q99MF5 22-199); test: cell-based or functional assay
T5 sequence: T2 sequence with S50N, L84F, G94A, V137A, I138V

B1: TPP-29523 (antibody, mouse IgG1)
heavy: QVQLVESGGGVVQPGRSLRLSCAASGFTFSHYDMHWVRQAPGKGLEWVAVISYEGSVKFYADSVKGRFTISRDNSKNTLYLQMNSLRAEDTAVYYCARTPGFHFDYWGQGTLVTVSSAKTTPPSVYPLAPGSAAQTNSMVTLGCLVKGYFPEPVTVTWNSGSLSSGVHTFPAVLQSDLYTLSSSVTVPSSTWPSETVTCNVAHPASSTKVDKKIVPRDCGCKPCICTVPEVSSVFIFPPKPKDVLTITLTPKVTCVVVDISKDDPEVQFSWFVDDVEVHTAQTQPREEQFNSTFRSVSELPIMHQDWLNGKEFKCRVNSAAFPAPIEKTISKTKGRPKAPQVYTIPPPKEQMAKDKVSLTCMITDFFPEDITVEWQWNGQPAENYKNTQPIMDTDGSYFVYSKLNVQKSNWEAGNTFTCSVLHEGLHNHHTEKSLSHSPGK
light: QSVLTQPPSASGTPGQRVTISCSGSSSNIGSNYVNWYQQLPGTAPKLLIYYDDLRPSGVPDRFSGSKSGTSASLAISGLRSEDEADYYCSAWDDSLSGVVFGGGTKLTVLGQPKSSPSVTLFPPSSEELETNKATLVCTITDFYPGVVTVDWKVDGTPVTQGMETTQPSKQSNNKYMASSYLTLTARAWERHSSYSCQVTHEGHTVEKSLSRADCS
notes: mIgG1, Lambda
Efficacy (%) (human IL-11 [1]): 84.3% | IC50 (human IL-11 [1]): 2.1 nM | Efficacy (%) (murine IL-11 [2]): 84.3% | IC50 (murine IL-11 [2]): 0.12 nM | Antibody/Isotype Control Ratio of IL-2Ra Binding Signals (human IL2Ra): 1.2 ratio

B3: TPP-29520 (antibody, mouse IgG1)
heavy: B1 heavy with E54S, F102S
light: B1 light
notes: mIgG1, Lambda
Efficacy (%) (human IL-11 [1]): 81.8% | IC50 (human IL-11 [1]): 1.3 nM | Efficacy (%) (murine IL-11 [2]): 81.8% | IC50 (murine IL-11 [2]): 0.13 nM | Antibody/Isotype Control Ratio of IL-2Ra Binding Signals (human IL2Ra): 0.6 ratio

B4: TPP-29522 (antibody, mouse IgG1)
heavy: B1 heavy with V57N
light: B1 light
notes: mIgG1, Lambda
Efficacy (%) (human IL-11 [1]): 85.4% | IC50 (human IL-11 [1]): 2 nM | Efficacy (%) (murine IL-11 [2]): 85.4% | IC50 (murine IL-11 [2]): 0.11 nM | Antibody/Isotype Control Ratio of IL-2Ra Binding Signals (human IL2Ra): 0.7 ratio

Now from value to binder:

Efficacy (%) (human IL-11 [1]): 85.7% | IC50 (human IL-11 [1]): 1.8 nM | Efficacy (%) (murine IL-11 [2]): 85.7% | IC50 (murine IL-11 [2]): 0.092 nM | Antibody/Isotype Control Ratio of IL-2Ra Binding Signals (human IL2Ra): 0.7 ratio
B2: TPP-29521 (antibody, mouse IgG1)
heavy: B1 heavy with V57N
light: B1 light with N35S
notes: mIgG1, Lambda

Efficacy (%), Stat3 reporter gene assay (human IL-11 [3]): 68.6% | IC50, Stat3 reporter gene assay (human IL-11 [3]): 8.7 nM | Efficacy (%), Stat3 reporter gene assay (murine IL-11 [4]): 46.7% | IC50, Stat3 reporter gene assay (murine IL-11 [4]): 28 nM | Efficacy (%), Stat3 reporter gene assay (human IL-11 [5]): 64% | Efficacy (%), Stat3 reporter gene assay (murine IL-11 [6]): 88.9% | IC50, Stat3 reporter gene assay (murine IL-11 [6]): 7.9 nM | Efficacy (%), Stat3 reporter gene assay (cynomolgus IL-11): 21.9% | Efficacy (%), Stat3 reporter gene assay (rat IL-11): 62.2% | IC50, Stat3 reporter gene assay (rat IL-11): 14 nM | Efficacy (%) (human IL-11 [1]): 45.8% | IC50 (human IL-11 [1]): 3.4 nM | Efficacy (%) (murine IL-11 [2]): 45.8% | IC50 (murine IL-11 [2]): 31 nM | Antibody/Isotype Control Ratio of IL-2Ra Binding Signals (human IL2Ra): 2.2 ratio
B5: TPP-23580 (antibody, mouse IgG1, kappa)
heavy: EVQLVQSGAEVKKPGASVKISCKASGYTFTDYNMDWVKQAPGQRLEWIGDINPHNGGPIYNQKFTGRATLTVDKSASTAYMELSSLRSEDTAVYYCARGELGHWYFDVWGQGTTVTVSSAKTTPPSVYPLAPGSAAQTNSMVTLGCLVKGYFPEPVTVTWNSGSLSSGVHTFPAVLQSDLYTLSSSVTVPSSTWPSETVTCNVAHPASSTKVDKKIVPRDCGCKPCICTVPEVSSVFIFPPKPKDVLTITLTPKVTCVVVDISKDDPEVQFSWFVDDVEVHTAQTQPREEQFNSTFRSVSELPIMHQDWLNGKEFKCRVNSAAFPAPIEKTISKTKGRPKAPQVYTIPPPKEQMAKDKVSLTCMITDFFPEDITVEWQWNGQPAENYKNTQPIMDTDGSYFVYSKLNVQKSNWEAGNTFTCSVLHEGLHNHHTEKSLSHSPGK
light: DIVLTQSPASLALSPGERATLSCRASKSVSTSGYSYIHWYQQKPGQPPRLLIYLASNLDSGVPARFSGSGSGTDFTLNIHPLEEEDFATYYCQHSRDLPPTFGQGTKLEIKRADAAPTVSIFPPSSEQLTSGGASVVCFLNNFYPKDINVKWKIDGSERQNGVLNSWTDQDSKDSTYSMSSTLTLTKDEYERHNSYTCEATHKTSTSPIVKSFNRNEC
notes: also called BSN 3C6 2.2-2.1-mIgG1Kappa; BSN 3C6 (WO2019238882)
